Target: T1, BMC08 (uncultured bacterium (metagenome))
T1 chain: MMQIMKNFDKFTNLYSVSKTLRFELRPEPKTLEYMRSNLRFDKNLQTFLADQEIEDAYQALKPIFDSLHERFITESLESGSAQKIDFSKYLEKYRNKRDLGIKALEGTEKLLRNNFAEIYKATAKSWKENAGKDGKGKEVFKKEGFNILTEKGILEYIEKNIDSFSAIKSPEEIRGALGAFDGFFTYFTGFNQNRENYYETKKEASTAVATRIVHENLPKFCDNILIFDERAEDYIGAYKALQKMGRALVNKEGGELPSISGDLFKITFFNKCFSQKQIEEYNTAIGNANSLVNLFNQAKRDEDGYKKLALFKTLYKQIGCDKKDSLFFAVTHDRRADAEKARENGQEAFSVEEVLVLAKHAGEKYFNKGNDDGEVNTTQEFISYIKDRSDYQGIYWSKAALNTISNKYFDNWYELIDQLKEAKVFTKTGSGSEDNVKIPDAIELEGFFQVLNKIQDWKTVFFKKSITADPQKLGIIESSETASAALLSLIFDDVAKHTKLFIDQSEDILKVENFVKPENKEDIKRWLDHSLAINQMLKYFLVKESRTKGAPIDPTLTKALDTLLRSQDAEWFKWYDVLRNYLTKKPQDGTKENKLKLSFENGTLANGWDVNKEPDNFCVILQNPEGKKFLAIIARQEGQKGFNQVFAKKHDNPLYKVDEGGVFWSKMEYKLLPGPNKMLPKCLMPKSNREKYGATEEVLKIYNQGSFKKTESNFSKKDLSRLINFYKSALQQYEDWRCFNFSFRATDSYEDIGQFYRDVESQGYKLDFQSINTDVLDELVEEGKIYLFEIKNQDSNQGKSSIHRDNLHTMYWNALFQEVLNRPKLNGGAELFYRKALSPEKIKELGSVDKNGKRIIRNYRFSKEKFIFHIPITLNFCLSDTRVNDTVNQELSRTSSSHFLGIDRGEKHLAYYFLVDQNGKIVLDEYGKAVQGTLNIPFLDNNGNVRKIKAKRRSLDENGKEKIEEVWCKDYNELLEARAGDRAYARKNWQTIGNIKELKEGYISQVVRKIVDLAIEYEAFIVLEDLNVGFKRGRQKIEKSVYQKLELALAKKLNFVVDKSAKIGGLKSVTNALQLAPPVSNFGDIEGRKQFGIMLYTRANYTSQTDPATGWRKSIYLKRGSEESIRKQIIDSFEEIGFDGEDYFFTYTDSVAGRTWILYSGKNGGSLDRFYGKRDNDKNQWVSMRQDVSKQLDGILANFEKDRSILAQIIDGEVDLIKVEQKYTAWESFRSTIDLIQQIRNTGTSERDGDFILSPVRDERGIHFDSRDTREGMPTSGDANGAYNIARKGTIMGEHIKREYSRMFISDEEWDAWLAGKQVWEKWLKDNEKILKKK
Experiment: cell_activity; PAM not stated; E. coli depletion, 30 C
Outline: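 E. coli carrying arabinose-induced (0.2%) BMC nuclease, grown at 30° C., made electrocompetent and electroporated with 50-100 ng plasmid carrying gRNA against malQ. Transformants plated on selective M9-glucose agar with kanamycin/ampicillin (± nourseothricin), and growth scored after 48 h at 30° C.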

B1: malQ gRNA (BMC stem-loop + 24 nt spacer) ; malQ protospacer (ssRNA ; dsDNA)
RNA: GAUUUCUACUAUUGUAGAUGUGGCGGUACGUUGAUGCAUCGCG
DNA 1: GTGGCGGTACGTTGATGCATCGCG
DNA 2: CGCGATGCATCAACGTACCGCCAC
  activity: > 99.9 % colony reduction
